This is an account of results in publication PMC7060279, “CCN1 is an opsonin for bacterial clearance and a direct activator of Toll-like receptor signaling” (Nature Communications, 2020).

Experiment [1] addresses T1, human recombinant TLR2 protein (human, UniProt O60603 21-588).
T1 construct: Toll-like receptor 2, human, recombinant protein from R&D systems; also called hTLR2; source: bought: R&D systems
Put plainly: SPR; Biacore T-200; TLR2, TLR4 and integrin αvβ3 immobilised on a CM5 chip by amine coupling; CCN1 as analyte at 25 µl per min, 25 °C, phosphate buffer with 350 mM NaCl, 0.5 mM CaCl2, 0.5 mM MgCl2, 10 µg per ml BSA; global fit to 1:1 Langmuir model, KD = kd/ka. The conditions noted are these: both partners purified.

Experiment [2] addresses T2, human recombinant TLR4 protein (without MD2) (human, UniProt O00206 24-631).
T2 construct: also called hTLR4; source: bought: R&D systems
The experiment is described as above. Particulars: both partners purified.

T1 sequence (O60603 21-588): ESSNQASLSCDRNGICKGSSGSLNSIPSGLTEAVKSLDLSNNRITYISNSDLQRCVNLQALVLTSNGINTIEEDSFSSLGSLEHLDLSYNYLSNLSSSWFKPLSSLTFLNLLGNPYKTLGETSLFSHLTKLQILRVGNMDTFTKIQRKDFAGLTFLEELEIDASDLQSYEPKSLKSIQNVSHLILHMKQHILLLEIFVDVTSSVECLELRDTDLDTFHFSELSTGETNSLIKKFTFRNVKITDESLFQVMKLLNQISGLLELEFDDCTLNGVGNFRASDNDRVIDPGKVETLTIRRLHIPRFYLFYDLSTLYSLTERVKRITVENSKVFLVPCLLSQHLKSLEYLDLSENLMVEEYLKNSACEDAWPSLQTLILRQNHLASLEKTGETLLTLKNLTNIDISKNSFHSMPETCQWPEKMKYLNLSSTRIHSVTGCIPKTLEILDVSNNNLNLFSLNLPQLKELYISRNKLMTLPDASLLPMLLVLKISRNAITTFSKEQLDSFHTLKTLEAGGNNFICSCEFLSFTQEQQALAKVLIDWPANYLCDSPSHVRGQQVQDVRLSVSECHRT
T2 sequence (O00206 24-631): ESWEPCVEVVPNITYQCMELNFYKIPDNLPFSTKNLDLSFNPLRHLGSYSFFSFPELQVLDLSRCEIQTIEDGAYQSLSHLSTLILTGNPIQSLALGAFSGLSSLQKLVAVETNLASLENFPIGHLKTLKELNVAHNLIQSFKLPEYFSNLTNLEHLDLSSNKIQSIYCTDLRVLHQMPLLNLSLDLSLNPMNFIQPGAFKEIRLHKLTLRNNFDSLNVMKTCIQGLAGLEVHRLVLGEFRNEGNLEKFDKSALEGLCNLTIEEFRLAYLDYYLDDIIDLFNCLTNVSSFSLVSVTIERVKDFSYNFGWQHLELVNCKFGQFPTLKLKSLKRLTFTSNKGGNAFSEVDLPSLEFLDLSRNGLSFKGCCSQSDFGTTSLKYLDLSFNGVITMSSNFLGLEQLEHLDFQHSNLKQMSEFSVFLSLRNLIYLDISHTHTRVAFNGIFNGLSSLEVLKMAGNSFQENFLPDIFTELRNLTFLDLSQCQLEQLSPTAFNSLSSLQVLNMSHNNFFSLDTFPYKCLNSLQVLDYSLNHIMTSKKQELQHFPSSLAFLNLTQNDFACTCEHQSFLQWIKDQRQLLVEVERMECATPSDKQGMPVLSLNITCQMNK

B1: CCN1-WT (recombinant matricellular protein CCN1) (natural protein, UniProt P18406 25-379, looked up)
chain: TCPAACHCPLEAPKCAPGVGLVRDGCGCCKVCAKQLNEDCSKTQPCDHTKGLECNFGASSTALKGICRAQSEGRPCEYNSRIYQNGESFQPNCKHQCTCIDGAVGCIPLCPQELSLPNLGCPNPRLVKVSGQCCEEWVCDEDSIKDSLDDQDDLLGLDASEVELTRNNELIAIGKGSSLKRLPVFGTEPRVLFNPLHAHGQKCIVQTTSWSQCSKSCGTGISTRVTNDNPECRLVKETRICEVRPCGQPVYSSLKKGKKCSKTKKSPEPVRFTYAGCSSVKKYRPKYCGSCVDGRCCTPLQTRTVKMRFRCEDGEMFSKNVMMIQSCKCNYNCPHPNEASFRLYSLFNDIHKFRD
notes: CCN1 (CYR61), 40 kDa matricellular protein with IGFBP, vWC, TSR and CT domains; also called CYR61; Cyr61
Broadly, the Kd is the concentration at which binding is half-saturated. As to B1, the Kd in experiment [1] was determined as 227 nM; in experiment [2], 291 nM.
